Experimental data: the Human Domainome abundance scans (Beltran et al. 2025)
± gives the uncertainty stated by the source.

B1: Zinc finger homeobox protein 4, residues 2562 to 2617; numbered along this chain, Q86UP3 (parent)
chain: RLRTTITPEQLEILYEKYLLDSNPTRKMLDHIAREVGLKKRVVQVWFQNTRARERK

Variants of: B1
Assay: abundance fitness (aPCA) (normalised: wild type 0, dead -1); higher = more abundant; growth selection in yeast, the domain comes from the species named
Conditions: Homo sapiens
Variant K40R has an abundance fitness of 0.057 ± 0.086.
Work on K17E yielded an abundance fitness of -0.081 ± 0.28.
For K17V, the abundance fitness was -0.552 ± 0.23.
For K17H, the abundance fitness was -0.441 ± 0.36.
K17N gave an abundance fitness of 0.008 ± 0.11.
Variant E35M has an abundance fitness of -0.279 ± 0.1.
With E35H the abundance fitness was -0.302 ± 0.13.
For K56R, the abundance fitness was -0.701 ± 0.26.
K56E gave an abundance fitness of 0.273 ± 0.17.
In the case of K56V, the abundance fitness is reported as -0.282 ± 0.37.
K56I gave an abundance fitness of -0.305 ± 0.5.
With F47V the abundance fitness was -0.974 ± 0.1.
F47E showed an abundance fitness of -0.806 ± 0.07.
For F47Y, the abundance fitness was -0.072 ± 0.11.
Work on F47R yielded an abundance fitness of -0.969 ± 0.077.
For F47T, the abundance fitness was -0.789 ± 0.11.
Work on Q10Y yielded an abundance fitness of -0.856 ± 0.32.
With L20C the abundance fitness was -0.236 ± 0.07.
Variant L20W has an abundance fitness of -0.124 ± 0.074.
Work on L20T yielded an abundance fitness of -0.19 ± 0.092.
N49S showed an abundance fitness of -0.009 ± 0.072.
For N49C, the abundance fitness was -0.282 ± 0.067.
For N49I, the abundance fitness was 0.12 ± 0.12.
Variant N49Q has an abundance fitness of -0.104 ± 0.09.
Variant N49W has an abundance fitness of -0.422 ± 0.063.
N49K gave an abundance fitness of -0.489 ± 0.16.
E12C showed an abundance fitness of -0.224 ± 0.11.
E12M showed an abundance fitness of -0.075 ± 0.087.
E12Y gave an abundance fitness of -0.435 ± 0.18.
For D21L, the abundance fitness was -0.474 ± 0.057.
For D21M, the abundance fitness was -0.673 ± 0.21.
Work on D21E yielded an abundance fitness of 0.078 ± 0.11.
V43C showed an abundance fitness of -0.505 ± 0.12.
Work on V43L yielded an abundance fitness of -0.306 ± 0.083.
V43G gave an abundance fitness of -0.89 ± 0.085.
Variant D30F has an abundance fitness of -0.372 ± 0.068.
D30Y gave an abundance fitness of 0.003 ± 0.17.
D30L showed an abundance fitness of -0.296 ± 0.069.
For D30P, the abundance fitness was -0.579 ± 0.22.
K27V showed an abundance fitness of 0.099 ± 0.086.
K27F showed an abundance fitness of -0.265 ± 0.073.
Work on K27I yielded an abundance fitness of -0.245 ± 0.16.
Variant K27S has an abundance fitness of 0.074 ± 0.08.
With K27G the abundance fitness was 0.074 ± 0.069.
With L29F the abundance fitness was -0.049 ± 0.07.
P24E gave an abundance fitness of -0.976 ± 0.13.
For P24M, the abundance fitness was -0.687 ± 0.12.
Work on P24I yielded an abundance fitness of -0.415 ± 0.22.
R26S showed an abundance fitness of 0.142 ± 0.084.
Variant R26M has an abundance fitness of -0.092 ± 0.21.
Work on R26K yielded an abundance fitness of 0.1 ± 0.33.
Variant R26Q has an abundance fitness of 0.369 ± 0.075.
With L19E the abundance fitness was -0.136 ± 0.11.
Work on L11R yielded an abundance fitness of -0.043 ± 0.052.
L11V gave an abundance fitness of 0.123 ± 0.061.
L11H gave an abundance fitness of -0.01 ± 0.11.
L11W gave an abundance fitness of -0.203 ± 0.07.
For L11D, the abundance fitness was 0.108 ± 0.064.
R41Q gave an abundance fitness of 0.476 ± 0.11.
R41H gave an abundance fitness of 0.163 ± 0.069.
In the case of Q44V, the abundance fitness is reported as -0.156 ± 0.062.
In the case of Q44G, the abundance fitness is reported as -0.031 ± 0.069.
Q44L gave an abundance fitness of -0.128 ± 0.06.
Variant Y15F has an abundance fitness of -0.193 ± 0.13.
For Y15N, the abundance fitness was 0.075 ± 0.094.
For Y15P, the abundance fitness was -0.781 ± 0.073.
Y15I gave an abundance fitness of -0.224 ± 0.093.
With P8H the abundance fitness was -0.422 ± 0.42.
For E9G, the abundance fitness was -0.159 ± 0.051.
E9C showed an abundance fitness of -0.417 ± 0.063.
With E9N the abundance fitness was -0.141 ± 0.054.
E9R showed an abundance fitness of -0.005 ± 0.054.
Work on E9T yielded an abundance fitness of -0.105 ± 0.068.
H31E gave an abundance fitness of 0.426 ± 0.095.
H31I gave an abundance fitness of 0.205 ± 0.15.
H31Y gave an abundance fitness of -0.201 ± 0.33.
H31R gave an abundance fitness of -0.129 ± 0.071.
With H31M the abundance fitness was -0.169 ± 0.15.
E54S gave an abundance fitness of -0.254 ± 0.088.
In the case of K39C, the abundance fitness is reported as 0.142 ± 0.12.
K39P showed an abundance fitness of 0.196 ± 0.12.
Work on K39N yielded an abundance fitness of -0.168 ± 0.29.
For K39A, the abundance fitness was 0.234 ± 0.071.
Work on A52Q yielded an abundance fitness of -0.035 ± 0.064.
A52V showed an abundance fitness of -0.327 ± 0.05.
Variant A52N has an abundance fitness of 0.189 ± 0.13.
A52E showed an abundance fitness of 0.283 ± 0.077.
L2C gave an abundance fitness of -0.296 ± 0.083.
In the case of L2R, the abundance fitness is reported as -0.176 ± 0.076.
L2G showed an abundance fitness of -0.132 ± 0.079.
L2M gave an abundance fitness of 0.024 ± 0.11.
R51F showed an abundance fitness of -0.08 ± 0.07.
With R51E the abundance fitness was -0.15 ± 0.12.
R51V gave an abundance fitness of 0.017 ± 0.076.
In the case of R51G, the abundance fitness is reported as -0.151 ± 0.068.
Q48M gave an abundance fitness of -0.16 ± 0.084.
With Q48E the abundance fitness was 0.433 ± 0.07.
Work on Q48F yielded an abundance fitness of -0.389 ± 0.12.
For Q48K, the abundance fitness was -0.006 ± 0.098.
For Q48P, the abundance fitness was -1.02 ± 0.29.
G37S gave an abundance fitness of -0.359 ± 0.082.
G37R gave an abundance fitness of -0.369 ± 0.081.
I32Y gave an abundance fitness of -0.208 ± 0.085.
In the case of I32C, the abundance fitness is reported as -0.518 ± 0.072.
I32G showed an abundance fitness of -0.945 ± 0.16.
Work on R34D yielded an abundance fitness of -0.536 ± 0.25.
In the case of R34F, the abundance fitness is reported as -0.101 ± 0.1.
For R34G, the abundance fitness was 0.123 ± 0.051.
T7G showed an abundance fitness of -0.155 ± 0.066.
Work on T7Q yielded an abundance fitness of -0.295 ± 0.082.
Work on T7S yielded an abundance fitness of -0.111 ± 0.13.
V45Q gave an abundance fitness of -0.568 ± 0.21.
In the case of V45I, the abundance fitness is reported as -0.057 ± 0.14.
For V45C, the abundance fitness was -0.352 ± 0.13.
Variant V45W has an abundance fitness of -0.439 ± 0.11.
Work on V45G yielded an abundance fitness of -0.198 ± 0.083.
For V45E, the abundance fitness was 0.535 ± 0.098.
I13F gave an abundance fitness of -0.084 ± 0.14.
I13W showed an abundance fitness of -0.246 ± 0.067.
I13P gave an abundance fitness of -0.68 ± 0.06.
Variant I13H has an abundance fitness of -0.588 ± 0.31.
Work on I13D yielded an abundance fitness of -0.535 ± 0.23.
Variant I13R has an abundance fitness of -0.003 ± 0.052.
Work on I13A yielded an abundance fitness of 0.003 ± 0.08.
With I13L the abundance fitness was -0.097 ± 0.083.
Work on Y18Q yielded an abundance fitness of -0.839 ± 0.43.
Work on Y18L yielded an abundance fitness of -0.439 ± 0.13.
For Y18W, the abundance fitness was -0.31 ± 0.1.
In the case of Y18V, the abundance fitness is reported as -0.764 ± 0.095.
With Y18K the abundance fitness was -0.544 ± 0.27.
Y18S gave an abundance fitness of -0.975 ± 0.18.
Y18H gave an abundance fitness of -0.773 ± 0.31.
Work on R55I yielded an abundance fitness of 0.053 ± 0.1.
For R55F, the abundance fitness was -0.23 ± 0.15.
R55A gave an abundance fitness of 0.107 ± 0.083.
With L14V the abundance fitness was -0.945 ± 0.083.
Variant L14Q has an abundance fitness of -0.959 ± 0.17.
L14Y showed an abundance fitness of -0.867 ± 0.17.
In the case of L14F, the abundance fitness is reported as -0.718 ± 0.14.
With L14M the abundance fitness was -0.225 ± 0.088.
Variant R53G has an abundance fitness of 0.054 ± 0.072.
Work on R53Y yielded an abundance fitness of -0.62 ± 0.28.
Work on R53D yielded an abundance fitness of 0.226 ± 0.14.
For T4K, the abundance fitness was -0.408 ± 0.12.
In the case of N23E, the abundance fitness is reported as -0.086 ± 0.11.
In the case of N23D, the abundance fitness is reported as -0.039 ± 0.14.
In the case of T25H, the abundance fitness is reported as -0.596 ± 0.48.
In the case of T25N, the abundance fitness is reported as -0.148 ± 0.094.
Work on T25A yielded an abundance fitness of -0.384 ± 0.11.
I6Y showed an abundance fitness of 0.06 ± 0.089.
For I6T, the abundance fitness was -0.584 ± 0.19.
Variant I6H has an abundance fitness of -0.202 ± 0.29.
I6A showed an abundance fitness of -0.266 ± 0.099.
In the case of I6N, the abundance fitness is reported as -0.708 ± 0.32.
For S22N, the abundance fitness was -0.429 ± 0.15.
Variant S22K has an abundance fitness of -0.305 ± 0.12.
S22H showed an abundance fitness of -0.289 ± 0.079.
Work on R3P yielded an abundance fitness of -0.004 ± 0.11.
R3E gave an abundance fitness of 0.207 ± 0.1.
In the case of W46L, the abundance fitness is reported as -0.887 ± 0.14.
W46C gave an abundance fitness of -0.663 ± 0.18.
Work on L38S yielded an abundance fitness of -0.846 ± 0.091.
L38R showed an abundance fitness of -0.818 ± 0.07.
With L38I the abundance fitness was -0.025 ± 0.26.
Work on V42R yielded an abundance fitness of -0.413 ± 0.068.
V42D gave an abundance fitness of 0.23 ± 0.066.
In the case of V42T, the abundance fitness is reported as -0.187 ± 0.12.
